Results as given in patent US20190307687A1.
Square brackets hold non-standard residues; d marks the D form.

Biological target: αvβ3 integrin on TNF-α-treated bovine aortic endothelial cells (BAEC) (bovine) (UniProt P80746)
Assay: attachment under flow in a microfluidic device coated with TNF-α-treated BAEC cells; reference RGD-targeted nanospheres

fold higher attachment compared to RGD-targeted nanospheres (after 5 min): 9.5 fold | fold higher attachment compared to RGD-targeted nanospheres (after 20 min): 2.9 fold
B1: RGD-NC nanoparticle (integrin-targeted nanochain of four iron oxide nanospheres carrying c(RGDfC) peptides on PEG) (peptide)
peptide: cyclo(RGD[dF]C)
modifications: not fully specified (residue 5); printed as cyclo (Arg-Gly-Asp-D-Phe-Cys); also: nanochain also tagged with VivoTag 680
